In article PMC4014545, “Structure and Inhibition of Mouse Leukotriene C4 Synthase” (PLoS ONE, 2014):
Blank lines part the entries; values can stand above or below the molecule they belong to.

Legend:
[1] = target: T1, human leukotriene C4 synthase (hLTC4S) (Homo sapiens, UniProt Q16873); assay: LTC4 formation by purified enzyme, RP-HPLC; competitive inhibition model fit; type: biochemical
T1 construct: gene LTC4S
T1 sequence (Q16873 1-150): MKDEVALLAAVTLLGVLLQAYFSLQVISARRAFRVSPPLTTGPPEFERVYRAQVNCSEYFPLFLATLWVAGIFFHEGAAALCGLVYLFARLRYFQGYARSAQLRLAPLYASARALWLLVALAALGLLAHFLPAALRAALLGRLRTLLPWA

[2] = target: T2, mouse leukotriene C4 synthase (mLTC4S) (Mus musculus, UniProt Q60860); assay: as above; type: biochemical
T2 construct: gene Ltc4s; N-terminal hexa-histidine tag
T2 sequence (Q60860 1-150): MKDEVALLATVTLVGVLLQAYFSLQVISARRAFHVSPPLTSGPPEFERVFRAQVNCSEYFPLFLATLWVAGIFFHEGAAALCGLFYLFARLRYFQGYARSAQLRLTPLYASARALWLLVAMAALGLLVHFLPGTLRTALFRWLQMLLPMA

[3] = target: T2, mouse leukotriene C4 synthase (mLTC4S); assay: X-ray crystal structure (co-crystal), […] Å; Km […] also measured; type: binding
[4] = substrate: CCCCC/C=C\C\C=C/C=C/C=C/[C@@H]1O[C@H]1CCCC(=O)O; assay: steady-state kinetics (Km) of purified enzyme, RP-HPLC; type: biochemical, Homo sapiens; conditions: GSH hydrophobic LTA4 binding site; pH 7.8
[5] = substrate: CCCCC/C=C\C\C=C/C=C/C=C/[C@@H]1O[C@H]1CCCC(=O)O; assay: as above; type: biochemical, Mus musculus; conditions: GSH hydrophobic LTA4 binding site; pH 7.8

- Ki [1]: 0.041 ± 0.0066 µM
- Ki [2]: 0.037 ± 0.0064 µM
Molecule: CN(c1ccc(Cl)cc1)c1ccc(C(=O)c2ccc(C(=O)c3ccccc3)c(C(=O)O)c2)nc1 [TK04, 2-Benzoyl-5-{5-[(4-chlorophenyl) (methyl)amino]pyridine-2-carbonyl}benzoic acid]

Molecule: N[C@@H](CCC(=O)N[C@@H](CS)C(=O)NCC(=O)O)C(=O)O [GSH]
- X-ray crystal structure (co-crystal), 2.7 Å; Km 1.2±0.24 mM also measured [3]: In the structure of the mLTC4S in complex with GSH, the tripeptide has a “U” shaped conformation

B1: human leukotriene C4 synthase (hLTC4S) (Homo sapiens) (protein)
chain: T1 sequence (Q16873 1-150)
- Km [4]: 23 ± 3 µM
- kcat [4]: 15.5 ± 0.8 s⁻¹
- kcat/Km [4]: 600000 ± 57000 M⁻¹ s⁻¹

B2: mouse leukotriene C4 synthase (mLTC4S) (Mus musculus) (protein)
chain: T2 sequence (Q60860 1-150)
notes: N-terminal hexa-histidine tag
- Km [5]: 36 ± 8 µM
- kcat [5]: 81 ± 7 s⁻¹
- kcat/Km [5]: 2.3e+06 ± 260000 M⁻¹ s⁻¹
